According to patent US8357833B2, “Corn plants and seed enhanced for asparagine and protein” (priority 2007, dated 2013):
Where two headings read alike, the source gives them in different places.

Legend:
[1] = molecular target: T1, Zea mays asparagine synthetase Zm AsnS4 (SEQ ID NO: 51, encoded by SEQ ID NO: 50) (Zea mays, UniProt B5U8J9); assay: Kinetics of recombinant his-tagged, refolded maize asparagine synthetase AsnS4 (substrate titration, asparagine by HPLC); type: biochemical
T1 construct: 588 aa
T1 sequence (B5U8J9 1-588): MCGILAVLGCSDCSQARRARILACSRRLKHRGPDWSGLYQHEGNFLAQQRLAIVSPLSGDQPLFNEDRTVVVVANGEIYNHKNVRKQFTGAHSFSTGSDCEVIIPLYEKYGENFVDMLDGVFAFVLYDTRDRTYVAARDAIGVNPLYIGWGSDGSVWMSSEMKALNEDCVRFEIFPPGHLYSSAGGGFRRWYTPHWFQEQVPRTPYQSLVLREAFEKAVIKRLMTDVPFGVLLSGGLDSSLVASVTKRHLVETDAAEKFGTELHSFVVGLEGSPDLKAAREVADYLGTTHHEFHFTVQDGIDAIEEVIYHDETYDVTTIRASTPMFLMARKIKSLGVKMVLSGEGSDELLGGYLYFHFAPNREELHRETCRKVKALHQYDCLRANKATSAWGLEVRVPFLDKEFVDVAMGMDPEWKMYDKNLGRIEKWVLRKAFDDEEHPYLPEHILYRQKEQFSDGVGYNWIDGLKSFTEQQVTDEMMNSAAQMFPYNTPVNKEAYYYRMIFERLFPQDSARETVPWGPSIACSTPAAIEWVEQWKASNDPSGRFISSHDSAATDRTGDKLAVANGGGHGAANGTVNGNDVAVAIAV
Method: The effect of expression of asparagine synthetase genes on asparagine synthetase activity was measured in transgenic events of pMON79706 and pMON92870. Frozen, ground leaf tissue was aliquoted (200-400 mg) into wells from a precooled 96 deep-well plate. Protein was extracted in Buffer A (100 mM Hepes-OH, pH 8.0, 0.1 mM EDTA, 10 mM MgCl2, 2 mM aspartate, 0.5 mM DTT, 67 mM mercaptoethanol, 20% (v/v) glycerol, 0.1 mM ATP, 1% (v/v) P9599 (Sigma Company), 25 mM KCl). A small amount of sand was added to each well. Buffer A was then added to the leaf tissue in the wells at a ratio of 4:1 (buffer:tissue). The plates were then agitated in a paint shaker for 2 min. to mix the sample and then centrifuged at 5000×g for 10 minutes. The supernatant (100-200 μL) was desalted in a 96-well macro spin plate (SNS S025L, The Nest Group Inc., Southboro, Mass.) equilibrated in buffer A. The supernatant was then either assayed immediately or frozen in liquid nitrogen and maintained at −80° C. until used. To assay asparagine synthetase activity, desalted protein extracts (10-50 μL) were added to wells containing 100 μL assay solution (100 mM Hepes, pH 8.0, 10 mM MgCl2, 2 mM aspartate, 5 mM DTT, 10 mM ATP, 1 mM amino(oxy)acetic acid (aspartate amino transferase inhibitor), 1 mM aspartic semialdehyde (asparaginase inhibitor). To start the reaction, glutamine (final concentration of 2 mM for standard assay) was added to the solution, which was then mixed. The assay mixture was then incubated for 1 to 2 hours. The reaction was then stopped by the addition of an equal volume of 20% (w/v) trichloroacetic acid. The mixture was then filtered to remove precipitate and asparagine was measured by HPLC. Sample size was increased from 0.5 μL to 2.5 μL for HPLC, excitation wavelength was reduced from 340 nm to 235 nm, and fluorimeter gain was increased from 10 to 13. […]

[2] = molecular target: T2, Zea mays asparagine synthetase Zm AsnS2 (SEQ ID NO: 4, encoded by SEQ ID NO: 3) (Zea mays, UniProt B5U8J7); assay: Kinetics of recombinant his-tagged, refolded maize asparagine synthetase AsnS2 (substrate titration, asparagine by HPLC); type: biochemical; conditions: AsnS2 versus the other maize AsnS enzymes
T2 construct: 606 aa
T2 sequence (B5U8J7 1-606): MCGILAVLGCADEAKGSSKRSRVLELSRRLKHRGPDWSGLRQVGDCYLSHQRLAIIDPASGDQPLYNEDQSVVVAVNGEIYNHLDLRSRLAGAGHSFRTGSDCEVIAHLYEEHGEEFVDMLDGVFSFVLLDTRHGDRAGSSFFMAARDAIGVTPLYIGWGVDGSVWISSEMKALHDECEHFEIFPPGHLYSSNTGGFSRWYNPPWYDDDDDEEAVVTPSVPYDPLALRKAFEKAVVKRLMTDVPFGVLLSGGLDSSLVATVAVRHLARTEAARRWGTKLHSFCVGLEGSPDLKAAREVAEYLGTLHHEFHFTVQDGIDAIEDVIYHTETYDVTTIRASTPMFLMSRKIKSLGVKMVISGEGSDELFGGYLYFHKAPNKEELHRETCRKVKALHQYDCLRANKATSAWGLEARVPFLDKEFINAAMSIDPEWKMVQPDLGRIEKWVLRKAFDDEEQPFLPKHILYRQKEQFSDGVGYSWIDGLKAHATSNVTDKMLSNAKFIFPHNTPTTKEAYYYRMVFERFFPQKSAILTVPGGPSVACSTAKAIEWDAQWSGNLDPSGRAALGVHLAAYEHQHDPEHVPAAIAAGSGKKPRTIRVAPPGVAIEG
Method: The effect of expression of asparagine synthetase genes on asparagine synthetase activity was measured in transgenic events of pMON79706 and pMON92870. Frozen, ground leaf tissue was aliquoted (200-400 mg) into wells from a precooled 96 deep-well plate. Protein was extracted in Buffer A (100 mM Hepes-OH, pH 8.0, 0.1 mM EDTA, 10 mM MgCl2, 2 mM aspartate, 0.5 mM DTT, 67 mM mercaptoethanol, 20% (v/v) glycerol, 0.1 mM ATP, 1% (v/v) P9599 (Sigma Company), 25 mM KCl). A small amount of sand was added to each well. Buffer A was then added to the leaf tissue in the wells at a ratio of 4:1 (buffer:tissue). The plates were then agitated in a paint shaker for 2 min. to mix the sample and then centrifuged at 5000×g for 10 minutes. The supernatant (100-200 μL) was desalted in a 96-well macro spin plate (SNS S025L, The Nest Group Inc., Southboro, Mass.) equilibrated in buffer A. The supernatant was then either assayed immediately or frozen in liquid nitrogen and maintained at −80° C. until used. […] The mixture was then filtered to remove precipitate and asparagine was measured by HPLC. […]

[3] = substrate: Nc1ncnc2c1ncn2[C@@H]1O[C@H](COP(=O)(O)OP(=O)(O)OP(=O)(O)O)[C@@H](O)[C@H]1O; assay: Kinetics of recombinant his-tagged, refolded maize asparagine synthetase AsnS1 (substrate titration, asparagine by HPLC); type: biochemical, Zea mays; conditions: other: Zm AsnS1, 100 mM Hepes, pH 8.0, 10 mM MgCl2
Description: (§1) This example describes the cloning of the nucleotide sequence for AsnS1 (SEQ ID NO: 1), AsnS2 (SEQ ID NO: 3), AsnS3 (SEQ ID NO: 5) and AsnS4 (SEQ ID NO: 50) into E. coli expression vectors, as well as the expression, purification and kinetics of the recombinant forms of the four AsnS isoforms.
(§2) These vectors are expected to produce recombinant proteins with C-terminal histidine tags.
(§3) The E. coli expression vectors described in the previous paragraph were used to transform Rosetta DE5™ E. coli cells (Novagen). Transformed cells were transferred from solid LB media plates and grown in liquid LB media containing standard concentrations of kanomycin (50 μM) and chloramphenicol (25 μM) at 37° C. An overnight culture was used to inoculate a 25 mL culture, which was grown at 37° C. until mid log phase (OD600=0.40.6). Cells were then transferred to 20° C. for 30 min after which IPTG was added to a final concentration of 0.5 mM. The cells were then grown at 20° C. for 12 hours and cell pellets were harvested by centrifugation.
(§4) The protein was recovered from the insoluble fraction while bound to a nickel column. Buffers used for the purification of recombinant AsnS were: […]

[4] = substrate: N[C@@H](CC(=O)O)C(=O)O; assay: as above; type: biochemical, Zea mays; conditions: other: Zm AsnS1, 100 mM Hepes, pH 8.0, 10 mM MgCl2
Description: as §1, §2, §3, §4

[5] = substrate: NC(=O)CC[C@H](N)C(=O)O; assay: as above; type: biochemical, Zea mays; conditions: other: Zm AsnS1, 100 mM Hepes, pH 8.0, 10 mM MgCl2
Description: as §1, §2, §3, §4

[6] = substrate: Nc1ncnc2c1ncn2[C@@H]1O[C@H](COP(=O)(O)OP(=O)(O)OP(=O)(O)O)[C@@H](O)[C@H]1O; assay: Kinetics of recombinant his-tagged, refolded maize asparagine synthetase AsnS2 (substrate titration, asparagine by HPLC); type: biochemical, Zea mays; conditions: other: Zm AsnS2, 100 mM Hepes, pH 8.0, 10 mM MgCl2
Description: as §1, §2, §3, §4

[7] = substrate: N[C@@H](CC(=O)O)C(=O)O; assay: as above; type: biochemical, Zea mays; conditions: other: Zm AsnS2, 100 mM Hepes, pH 8.0, 10 mM MgCl2
Description: as §1, §2, §3, §4

[8] = substrate: NC(=O)CC[C@H](N)C(=O)O; assay: as above; type: biochemical, Zea mays; conditions: other: Zm AsnS2, 100 mM Hepes, pH 8.0, 10 mM MgCl2
Description: as §1, §2, §3, §4

[9] = substrate: Nc1ncnc2c1ncn2[C@@H]1O[C@H](COP(=O)(O)OP(=O)(O)OP(=O)(O)O)[C@@H](O)[C@H]1O; assay: Kinetics of recombinant his-tagged, refolded maize asparagine synthetase AsnS3 (substrate titration, asparagine by HPLC); type: biochemical, Zea mays; conditions: other: Zm AsnS3, 100 mM Hepes, pH 8.0, 10 mM MgCl2
Description: as §1, §2, §3, §4

[10] = substrate: N[C@@H](CC(=O)O)C(=O)O; assay: as above; type: biochemical, Zea mays; conditions: other: Zm AsnS3, 100 mM Hepes, pH 8.0, 10 mM MgCl2
Description: as §1, §2, §3, §4

[11] = substrate: NC(=O)CC[C@H](N)C(=O)O; assay: as above; type: biochemical, Zea mays; conditions: other: Zm AsnS3, 100 mM Hepes, pH 8.0, 10 mM MgCl2
Description: as §1, §2, §3, §4

Nc1ncnc2c1ncn2[C@@H]1O[C@H](COP(=O)(O)OP(=O)(O)OP(=O)(O)O)[C@@H](O)[C@H]1O [ATP]
Km ([1]; read-out: Km(ATP), 100 mM Hepes, pH 8.0, 10 mM MgCl2): 128 µM

NC(=O)CC[C@H](N)C(=O)O [Gln, glutamine]
Km (Gln) for AsnS2 compared with the other enzymes [2]: several fold lower than the other enzymes
Km ([1]; 100 mM Hepes, pH 8.0, 10 mM MgCl2, read-out: Km(Gln)): 233 µM

B1: Zea mays asparagine synthetase Zm AsnS1 (SEQ ID NO: 2, encoded by SEQ ID NO: 1) (Zea mays) (protein)
chain: MICDKCSLVRSFFVGRPRDITSLYKKAGSCRTMCGILAVLGVAEVSLAKRSRIIELSRRLRHRGPDWSGLHCHEDCYLAHQRLAIIDPTSGDQPLYNEDKTVVVTVNGEIYNHEELKAKLKTHEFQTGSDCEVIAHLYEEYGEEFVDMLDGMFSFVLLDTRDKSFIAARDAIGICPLYMGWGLDGSVWFSSEMKALSDDCERFITFPPGHLYSSKTGGLRRWYNPPWFSETVPSTPYNALFLREMFEKAVIKRLMTDVPFGVLLSGGLDSSLVASVASRHLNETKVDRQWGNKLHTFCIGLKGSPDLKAAREVADYLSTVHHEFHFTVQEGIDALEEVIYHIETYDVTTIRASTPMFLMSRKIKSLGVKMVISGEGSDEIFGGYLYFHKAPNKKEFHEETCRKIKALHLYDCLRANKATSAWGVEARVPFLDKSFISVAMDIDPEWKMIKRDLGRIEKWVIRNAFDDDERPYLPKHILYRQKEQFSDGVGYSWIDGLKDHASQHVSDSMMMNAGFVYPENTPTTKEGYYYRMIFEKFFPKPAARSTVPGGPSVACSTAKAVEWDASWSKNLDPSGRAALGVHDAAYEDTAGKTPASADPVSDKGLRPAIGESLGTPVASATAV
Km [3]: 110 µM
Km [4]: 980 µM
Km [5]: 543 µM

B2: Zea mays asparagine synthetase Zm AsnS2 (SEQ ID NO: 4, encoded by SEQ ID NO: 3) (Zea mays) (protein)
chain: T2 sequence (B5U8J7 1-606)
notes: 606 aa
Km [6]: 125 µM
Km [7]: 910 µM
Km [8]: 110 µM

B3: Zea mays asparagine synthetase Zm AsnS3 (SEQ ID NO: 6, encoded by SEQ ID NO: 5) (Zea mays) (protein)
chain: MCGILAVLGCSDWSQAKRARILACSRRLKHRGPDWSGLYQHEGNFLAQQRLAVVSPLSGDQPLFNEDRTVVVVANGEIYNHKNVRKQFTGTHNFSTGSDCEVIMPLYEKYGENFVDMLDGVFAFVLYDTRDRTYVAARDAIGVNPLYIGWGSDGSVWIASEMKALNEDCVRFEIFPPGHLYSSAGGGFRRWYTPHWFQEQVPRTPYQPLVLREAFEKAVIKRLMTDVPFGVLLSGGLDSSLVASVTKRHLVETEAAEKFGTELHSFVVGLEGSPDLKAAREVADYLGTIHHEFHFTVQDGIDAIEEVIYHDETYDVTTIRASTPMFLMARKIKSLGVKMVLSGEGSDELLGGYLYFHFAPNKEEFHRETCRKVKALHQYDCLRANKATSAWGLEVRVPFLDKEFINVAMGMDPEWKMYDKNLGRIEKWVMRKAFDDDEHPYLPKHILYRQKEQFSDGVGYNWIDGLKSFTEQQVTDEMMNNAAQMFPYNTPVNKEAYYYRMIFERLFPQDSARETVPWGPSIACSTPAAIEWVEQWKASNDPSGRFISSHDSAATDHTGGKPAVANGGGHGAANGTVNGKDVAVAIAV
notes: 588 aa
Km [9]: 97 µM
Km [10]: 1200 µM
Km [11]: 423 µM
